The text below walks through data of publication PMC6610666, “E2F4 regulates transcriptional activation in mouse embryonic stem cells independently of the RB family” (Nature Communications, 2019).

The assay addresses mouse CBP TAZ1 (residues 340-439) (mouse, UniProt P45481 340-439). In words: ITC; MicroCal VP-ITC; E2F4 TAD (300 uM) titrated into TAZ1 (30 uM) at 25 C; 25 mM HEPES pH 7.0, 200 mM NaCl, 5% glycerol v/v; E2F4 concentration adjusted such that N was close to 1. The conditions noted are these: both partners purified. (In general: ITC needs no label: the signal is the heat of the interaction.)

mouse CBP TAZ1 (residues 340-439), sequence (P45481 340-439): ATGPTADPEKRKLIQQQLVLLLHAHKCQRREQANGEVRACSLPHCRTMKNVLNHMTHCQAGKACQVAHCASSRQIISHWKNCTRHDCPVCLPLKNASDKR

B1: human E2F4 transactivation domain (residues 390-407) (domain or fragment, UniProt Q16254 390-407, looked up)
chain: HDYIYNLDESEGVCDLFD
notes: also called E2F4 TAD; E2F4 peptide; source: E. coli, purified (GST fusion, Superdex-75)
As for B1, the binding result is recorded as “binds”.
